{"source": "paper PMC10553838", "about": "(PLOS Pathogens, 2023)", "binders": {"B1": {"name": "Pa-ExoY (20-378) K347A (enzyme)", "chain": "LLRPADMQARALQDLFDAQGVGVPVEHALRMQAVARQTNTVFGIRPVERIVTTLIEEGFPTKGFSVKGKSSNWGPQAGFICVDQHLSKREDRDTAEIRKLNLAVAKGMDGGAYTQTDLRISRQRLAELVRNFGLVADGVGPVRLLTAQGPSGKRYEFEARQEADGLYRISRLGRSEAVQVLASPACGLAMTADYDLFLVAPSIEAHGSGGLDARRNTAVRYTPLGAKDPLSEDGFYGREDMARGNITPRTRQLVDALNDCLGRGEHREMFHHSDDAGNPGSHMGDNFPATFYLPRAMEHRVGEESVRFDEVCVVADRKSFSLLVECIAGNGYHFTAHPDWNVPLRPGFQEALDFFQRKV"}, "B2": {"name": "Pa-ExoY (20-378) H352A (enzyme)", "chain": "LLRPADMQARALQDLFDAQGVGVPVEHALRMQAVARQTNTVFGIRPVERIVTTLIEEGFPTKGFSVKGKSSNWGPQAGFICVDQHLSKREDRDTAEIRKLNLAVAKGMDGGAYTQTDLRISRQRLAELVRNFGLVADGVGPVRLLTAQGPSGKRYEFEARQEADGLYRISRLGRSEAVQVLASPACGLAMTADYDLFLVAPSIEAHGSGGLDARRNTAVRYTPLGAKDPLSEDGFYGREDMARGNITPRTRQLVDALNDCLGRGEHREMFHHSDDAGNPGSHMGDNFPATFYLPRAMEHRVGEESVRFDEVCVVADRKSFSLLVECIKGNGYAFTAHPDWNVPLRPGFQEALDFFQRKV"}, "B3": {"name": "Pa-ExoY (20-378) 3 Mut (F367A-L371A-F374A) (enzyme)", "chain": "LLRPADMQARALQDLFDAQGVGVPVEHALRMQAVARQTNTVFGIRPVERIVTTLIEEGFPTKGFSVKGKSSNWGPQAGFICVDQHLSKREDRDTAEIRKLNLAVAKGMDGGAYTQTDLRISRQRLAELVRNFGLVADGVGPVRLLTAQGPSGKRYEFEARQEADGLYRISRLGRSEAVQVLASPACGLAMTADYDLFLVAPSIEAHGSGGLDARRNTAVRYTPLGAKDPLSEDGFYGREDMARGNITPRTRQLVDALNDCLGRGEHREMFHHSDDAGNPGSHMGDNFPATFYLPRAMEHRVGEESVRFDEVCVVADRKSFSLLVECIKGNGYHFTAHPDWNVPLRPGAQEAADFAQRKV"}}, "data": [{"target": "F-actin (filamentous rabbit skeletal muscle α-actin) (rabbit, UniProt P68135 1-377)", "experiment": "cell-based or functional assay", "values": [{"binder": "B1", "F-actin-stimulated guanylate cyclase (cGMP synthesis) activity, 3 μM F-actin, against wild-type Pa-ExoY": "~15 fold decrease"}, {"binder": "B2", "F-actin-stimulated guanylate cyclase (cGMP synthesis) activity, 3 μM F-actin, against wild-type Pa-ExoY": "~8 fold decrease"}, {"binder": "B3", "F-actin-stimulated guanylate cyclase (cGMP synthesis) activity, 3 μM F-actin, against wild-type Pa-ExoY": "~12000 fold reduction"}]}]}
